For test [1], the target named is Dsg3-Fc recombinant fusion protein (Homo sapiens, UniProt P32926). The experiment in a line: SPR. (In SPR one partner is held on a chip, and binding of the other changes the refractive index at the surface.)
The target in test [2] is desmoglein 3 (Dsg3) on Dsg3 ELISA plates (Homo sapiens, UniProt P32926). Put plainly: ELISA.

As a reminder, the Kd is a measure of binding affinity in units of concentration. One may read the koff as a measure of how fast the partners let go of each other. As usually defined, the kon is the second-order rate constant of association.

Dsg3-Fc recombinant fusion protein, sequence (P32926 50-615): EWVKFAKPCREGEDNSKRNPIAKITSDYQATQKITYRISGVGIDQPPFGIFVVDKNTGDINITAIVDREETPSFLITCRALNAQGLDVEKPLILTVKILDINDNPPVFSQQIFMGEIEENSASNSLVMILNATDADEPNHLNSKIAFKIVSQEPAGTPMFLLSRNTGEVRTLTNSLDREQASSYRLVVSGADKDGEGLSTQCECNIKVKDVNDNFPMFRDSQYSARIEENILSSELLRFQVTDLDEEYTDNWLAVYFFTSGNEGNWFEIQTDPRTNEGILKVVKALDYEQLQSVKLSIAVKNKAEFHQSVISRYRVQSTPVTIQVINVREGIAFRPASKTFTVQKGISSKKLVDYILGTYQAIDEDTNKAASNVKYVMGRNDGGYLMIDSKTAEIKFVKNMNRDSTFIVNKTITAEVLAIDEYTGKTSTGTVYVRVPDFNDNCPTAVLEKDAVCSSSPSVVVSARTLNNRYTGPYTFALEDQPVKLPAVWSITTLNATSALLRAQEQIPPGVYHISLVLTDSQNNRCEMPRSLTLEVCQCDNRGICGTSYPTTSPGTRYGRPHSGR
desmoglein 3 (Dsg3) on Dsg3 ELISA plates, sequence (P32926 50-615): as above

B1: PVE4-8 scFv mAb, somatically mutated (scFv, V domains shown)
VH: QVQLVQSWAEVKKPGASVKFSCKASGYTFTAYYMHWVRQAPGQGLEWMGIINPSGGIATYAEKFQGRVTMTRDTSTTTVYMELSSLRSQDAAVYYCARDRQGFDLDVWGQGTTVTVSS
VL: ELVLTQPPSASGSPGQSVTISCTGTSSDVGGYNYVSWYQQHPGKAPKLMIYEVNKRPSGVPDRFSGSRSGNTASLTVSGLQAEDEADYYCSSYAGSNNLVFGGGTKVTVL
On to B1, for which, in test [1], the Kd stood at 2.39 nM, the koff stood at 0.00123 s⁻¹ and the kon stood at 515000 M⁻¹ s⁻¹.

B2: 4.2 scFv mAb, somatically mutated (scFv, V domains shown)
VH: EVQLVQSGAEVKKPGASLKVSCQASGYIFTSHYIHWVRQAPGQGLEWMGIINPSGGKTTFAQKFQGRVTMTRDTSTRTVYMEMSGLRSEDTAVYYCARDQSLGMDVWGQGTTVIVSS
VL: ELALTQPPSVSGSPGQSITISCTGTSSDVGGYNYVSWYQQHPGKAPKLMIYEVSKRPSGVSNRFSGSKSGNTASLTISGLQAEDEADYYCSSYAGSNNWVFGGGTKLTVL
As to B2, in test [1], the Kd turned out to be 0.182 nM, the koff turned out to be 0.000712 s⁻¹ and the kon stood at 3.91e+06 M⁻¹ s⁻¹.

B3: 3.2 scFv mAb, somatically mutated (scFv, V domains shown)
VH: QVQLVQSGAEVKKPGASVKVSCKASGYTFTSYYMHWVRQAPGHGLEWMGIINPSGGIANYAQKFQGRVTMTRDTSTSTVYMDLSSLTSEDTAVYYCARDLGGFDFDYWGQGTLVTVSS
VL: ELALTQPPSVSGSPGQSVTISCTGTSSDIGRYNFVSWYQQHPGKAPKLMIYEIYKRPSGVPDRFSGSRSGNTASLTVSGLQAEDEADYYCSSYVGNNDLVFGGGTQLTVL
Regarding B3, in test [1], the Kd came to 1.42 nM, the koff was 0.00231 s⁻¹ and the kon was 1.62e+06 M⁻¹ s⁻¹.

B4: F779 scFv, somatically mutated (scFv, V domains shown)
VH: QVQLVQSGADVKKPGASVKVSCTASGNTFTTYSLHWVRQAPGQGLEWMGVIDPSGGSTSYAQKFQGRLTMTRDTSTSTFYMELSSLRSEDTAVYYCARSIESISGRTLGYWGQGTLVTVSS
VL: DIVMTQTPLSSPVTLGQPASISCRSSETLVHSDGNTYLSWLQQRPGQPPRLLIYKISNRFSGVPDRFSGSGAGTDFTLKISRVEAEDVGVYYCLQATEFPYTFGQGTKLEIK
Turning to B4, in test [1], the Kd stood at 1.77 nM, the koff is 0.000548 s⁻¹ and the kon was 310000 M⁻¹ s⁻¹. In test [2], the binding result is listed as “binds”.

The values are drawn from article PMC4120239 (Nature communications, 2014).
